Reference: the supplement of paper PMC10201428
± gives the standard deviation of the averaged measurements.

B1: library; a variant is named by its letters at N, in order (parent)
chain: AATGTTGTTGATGCAACCATAAAGTGATATTTAATAATTATTTATAATCAGCAACTTAACCACAAAACAACCATATATTGATATNTCACAAAACAACCATAANTTGATATTTTTGTGAATCGAGTATTTCAGCAAAACTACTGCAGTAAGAA

Key:
[1] = variants of: B1; test: relative integration efficiency (T-LR orientation) vs wild-type transposon end (log2 (normalized fold change)); transposon end mutated: left end; higher = more efficient transposition; conditions: with VchCAST RNA-guided transposition machinery (E. coli BL21(DE3) host, lacZ target)
Method: (§1)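 Pooled, barcoded VchCAST (Tn6677) mini-transposon donor libraries; each variable transposon-end sequence sits in a fixed pDonor mini-transposon context (10-bp barcode and cargo not included). Left- or right-end libraries were co-transformed with pEffector (TniQ-Cascade, TnsABC, lacZ crRNA, T7, 0.1 mM IPTG) into E. coli BL21(DE3) and grown 18 h at 37 C. T-LR and T-RL junction amplicons were sequenced; output/input barcode fold change was normalised to the mean of four wild-type barcodes and log2-transformed. Two biological replicates; zero-count/undetected variants carry floor values (-10 / -15), censored here. Barcode uncoupling by PCR recombination adds noise.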

[2] = variants of: B1; test: relative integration efficiency (T-RL orientation) vs wild-type transposon end (log2 (normalized fold change)); transposon end mutated: left end; higher = more efficient transposition; conditions: with VchCAST RNA-guided transposition machinery (E. coli BL21(DE3) host, lacZ target)
Method: as §1

## AATGTTGTTGATGCACCCATAAATTGATAATTAATAATTATTTATAATCAGCAACTTAACCACAAAACAACCATATATTGATATCTCACAAAACAACCATAAAATGATAATTATGTGAATCGAGTATTTCAGCAAAACTACTGCAGTAAGAA [CA A16C G24T T30A T104A T110A T113A]
[1]
  relative integration efficiency (log2): -0.532 ± 0.028
[2]
  relative integration efficiency (log2): -0.543 ± 0.56

## AATGTTGTTGATGCACCCATAAATTGATAATTAATAATTATTTATAATCAGCAACTTAACCACAAAACAACCATAAAATGATAATTAACAAAACAACCATAAAGTGATATTTATGTGAATCGAGTATTTCAGCAAAACTACTGCAGTAAGAA [TA A16C G24T T30A T76A T78A T84A C87A T104G T113A]
[1]
  relative integration efficiency (log2): -0.559 ± 0.18
[2]
  relative integration efficiency (log2): -0.412 ± 0.26

## AATGTTGTTGATGCACCCATAAATTGATATTGCATAATTATTTATAATCAGCAACTTAACCACAAAACACCCATAAATTGATAATTAACAAAACAACCATAAAATGATAATTATGTGAATCGAGTATTTCAGCAAAACTACTGCAGTAAGAA [TA A16C G24T T32G A33C A70C T76A T84A C87A T104A T110A T113A]
[1]
  relative integration efficiency (log2): -2.03 ± 1.6
[2]
  relative integration efficiency (log2): -0.844 ± 0.55

## AATGTTGTTGATGCACCCATAAATTGATATTGCATAATTATTTATAATCAGCAACTTAACCACAAAACACCCATAAATTGATATTGCACAAAACACCCATAAATTGATAATTATGTGAATCGAGTATTTCAGCAAAACTACTGCAGTAAGAA [TA A16C G24T T32G A33C A70C T76A T86G A96C T110A T113A]
[1]
  relative integration efficiency (log2): -0.842 ± 0.018
[2]
  relative integration efficiency (log2): -0.63 ± 0.38

## AATGTTGTTGATGCACCCATAAATTGATAATTAATAATTATTTATAATCAGCAACTTAACCACAAAACAACCATAAAGTGATATTTAACAAAACAACCATATATTGATATCTCTGTGAATCGAGTATTTCAGCAAAACTACTGCAGTAAGAA [TA A16C G24T T30A T76A T78G C87A A102T T111C T113C]
[1]
  relative integration efficiency (log2): -0.495 ± 0.48
[2]
  relative integration efficiency (log2): -0.243 ± 0.23

## AATGTTGTTGATGCACCCATAAATTGATAATTAATAATTATTTATAATCAGCAACTTAACCACAAAACAACCATAAAGTGATATTTAACAAAACACCCATAAATTGATATTGCTGTGAATCGAGTATTTCAGCAAAACTACTGCAGTAAGAA [TA A16C G24T T30A T76A T78G C87A A96C T112G T113C]
[1]
  relative integration efficiency (log2): -0.557 ± 0.27
[2]
  relative integration efficiency (log2): -0.232 ± 0.21

## AATGTTGTTGATGCACCCATAAATTGATAATTAATAATTATTTATAATCAGCAACTTAACCACAAAACAACCATAAAGTGATATTTAACAAAACACCCATAAATTGATAATTATGTGAATCGAGTATTTCAGCAAAACTACTGCAGTAAGAA [TA A16C G24T T30A T76A T78G C87A A96C T110A T113A]
[1]
  relative integration efficiency (log2): 0.235 ± 1.1
[2]
  relative integration efficiency (log2): 0.17 ± 0.13

## AATGTTGTTGATGCACCCATAAATTGATAATTAATAATTATTTATAATCAGCAACTTAACCACAAAACAACCATAAAATGATAATTAACAAAACACCCATAAATTGATAATTATGTGAATCGAGTATTTCAGCAAAACTACTGCAGTAAGAA [TA A16C G24T T30A T76A T78A T84A C87A A96C T110A T113A]
[1]
  relative integration efficiency (log2): -0.28 ± 0.67
[2]
  relative integration efficiency (log2): -0.316 ± 0.43

## AATGTTGTTGATGCACCCATAAATTGATAATTAATAATTATTTATAATCAGCAACTTAACCACAAAACAACCATAAAGTGATATTTAACAAAACAACCATAAAATGATAATTATGTGAATCGAGTATTTCAGCAAAACTACTGCAGTAAGAA [TA A16C G24T T30A T76A T78G C87A T104A T110A T113A]
[1]
  relative integration efficiency (log2): -0.00394 ± 0.69
[2]
  relative integration efficiency (log2): -0.0421 ± 0.16

## AATGTTGTTGATGCACCCATAAATTGATAATTAATAATTATTTATAATCAGCAACTTAACCACAAAACAACCATAAAATGATAATTAACAAAACAACCATAAAATGATAATTATGTGAATCGAGTATTTCAGCAAAACTACTGCAGTAAGAA [TA A16C G24T T30A T76A T78A T84A C87A T104A T110A T113A]
[1]
  relative integration efficiency (log2): 0.114 ± 0.83
[2]
  relative integration efficiency (log2): -0.0645 ± 0.35

## AATGTTGTTGATGCACCCATAAATTGATAATTAATAATTATTTATAATCAGCAACTTAACCACAAAACAACCATAAAATGATAATTAACAAAACAACCATATATTGATATCTCTGTGAATCGAGTATTTCAGCAAAACTACTGCAGTAAGAA [TA A16C G24T T30A T76A T78A T84A C87A A102T T111C T113C]
[1]
  relative integration efficiency (log2): -0.306 ± 1.3
[2]
  relative integration efficiency (log2): -0.415 ± 0.32

## AATGTTGTTGATGCACCCATAAATTGATATTGCATAATTATTTATAATCAGCAACTTAACCACAAAACACCCATAAATTGATAATTAACAAAACAACCATAAAGTGATATTTATGTGAATCGAGTATTTCAGCAAAACTACTGCAGTAAGAA [TA A16C G24T T32G A33C A70C T76A T84A C87A T104G T113A]
[1]
  relative integration efficiency (log2): -1.55 ± 1.7
[2]
  relative integration efficiency (log2): -0.951 ± 0.57

## AATGTTGTTGATGCACCCATAAATTGATATTGCATAATTATTTATAATCAGCAACTTAACCACAAAACACCCATAAATTGATATTGCACAAAACACCCATAAATTGATATTGCTGTGAATCGAGTATTTCAGCAAAACTACTGCAGTAAGAA [TA A16C G24T T32G A33C A70C T76A T86G A96C T112G T113C]
[1]
  relative integration efficiency (log2): -1.11 ± 0.096
[2]
  relative integration efficiency (log2): -0.726 ± 0.16

## AATGTTGTTGATGCACCCATAAATTGATATTGCATAATTATTTATAATCAGCAACTTAACCACAAAACACCCATAAATTGATAATTAACAAAACACCCATAAATTGATAATTATGTGAATCGAGTATTTCAGCAAAACTACTGCAGTAAGAA [TA A16C G24T T32G A33C A70C T76A T84A C87A A96C T110A T113A]
[1]
  relative integration efficiency (log2): -0.499 ± 1.2
[2]
  relative integration efficiency (log2): -0.0812 ± 0.47

## AATGTTGTTGATGCACCCATAAATTGATATTGCATAATTATTTATAATCAGCAACTTAACCACAAAACACCCATAAATTGATAATTAACAAAACAACCATATATTGATATCTCTGTGAATCGAGTATTTCAGCAAAACTACTGCAGTAAGAA [TA A16C G24T T32G A33C A70C T76A T84A C87A A102T T111C T113C]
[1]
  relative integration efficiency (log2): -1.61 ± 0.92
[2]
  relative integration efficiency (log2): -0.84 ± 0.38

## AATGTTGTTGATGCACCCATAAATTGATAATTAATAATTATTTATAATCAGCAACTTAACCACAAAACAACCATATATTGATATCTCACAAAACAACCATAAAGTGATATTTATGTGAATCGAGTATTTCAGCAAAACTACTGCAGTAAGAA [CA A16C G24T T30A T104G T113A]
[1]
  relative integration efficiency (log2): -0.245 ± 0.15
[2]
  relative integration efficiency (log2): -0.185 ± 0.23

## AATGTTGTTGATGCACCCATAAATTGATAATTAATAATTATTTATAATCAGCAACTTAACCACAAAACAACCATAAAATGATAATTAACAAAACACCCATAAATTGATATTGCTGTGAATCGAGTATTTCAGCAAAACTACTGCAGTAAGAA [TA A16C G24T T30A T76A T78A T84A C87A A96C T112G T113C]
[1]
  relative integration efficiency (log2): -0.55 ± 0.9
[2]
  relative integration efficiency (log2): -0.0685 ± 0.46

## AATGTTGTTGATGCACCCATAAATTGATAATTAATAATTATTTATAATCAGCAACTTAACCACAAAACAACCATAAAGTGATATTTAACAAAACAACCATAAAGTGATATTTATGTGAATCGAGTATTTCAGCAAAACTACTGCAGTAAGAA [TA A16C G24T T30A T76A T78G C87A T104G T113A]
[1]
  relative integration efficiency (log2): -0.0106 ± 0.39
[2]
  relative integration efficiency (log2): -0.0789 ± 0.27

## AATGTTGTTGATGCACCCATAAATTGATATTGCATAATTATTTATAATCAGCAACTTAACCACAAAACACCCATAAATTGATAATTAACAAAACACCCATAAATTGATATTGCTGTGAATCGAGTATTTCAGCAAAACTACTGCAGTAAGAA [TA A16C G24T T32G A33C A70C T76A T84A C87A A96C T112G T113C]
[1]
  relative integration efficiency (log2): -0.915 ± 1.2
[2]
  relative integration efficiency (log2): -0.234 ± 0.35
